# According to publication PMC9973331, “DNA Methylation and RNA-DNA Hybrids Regulate the Single-Molecule Localization of a DNA Methyltransferase on the Bacterial Nucleoid”:
# T1: DnmA (WT) (Bacillus subtilis, UniProt O31504 1-879)
# T1 sequence: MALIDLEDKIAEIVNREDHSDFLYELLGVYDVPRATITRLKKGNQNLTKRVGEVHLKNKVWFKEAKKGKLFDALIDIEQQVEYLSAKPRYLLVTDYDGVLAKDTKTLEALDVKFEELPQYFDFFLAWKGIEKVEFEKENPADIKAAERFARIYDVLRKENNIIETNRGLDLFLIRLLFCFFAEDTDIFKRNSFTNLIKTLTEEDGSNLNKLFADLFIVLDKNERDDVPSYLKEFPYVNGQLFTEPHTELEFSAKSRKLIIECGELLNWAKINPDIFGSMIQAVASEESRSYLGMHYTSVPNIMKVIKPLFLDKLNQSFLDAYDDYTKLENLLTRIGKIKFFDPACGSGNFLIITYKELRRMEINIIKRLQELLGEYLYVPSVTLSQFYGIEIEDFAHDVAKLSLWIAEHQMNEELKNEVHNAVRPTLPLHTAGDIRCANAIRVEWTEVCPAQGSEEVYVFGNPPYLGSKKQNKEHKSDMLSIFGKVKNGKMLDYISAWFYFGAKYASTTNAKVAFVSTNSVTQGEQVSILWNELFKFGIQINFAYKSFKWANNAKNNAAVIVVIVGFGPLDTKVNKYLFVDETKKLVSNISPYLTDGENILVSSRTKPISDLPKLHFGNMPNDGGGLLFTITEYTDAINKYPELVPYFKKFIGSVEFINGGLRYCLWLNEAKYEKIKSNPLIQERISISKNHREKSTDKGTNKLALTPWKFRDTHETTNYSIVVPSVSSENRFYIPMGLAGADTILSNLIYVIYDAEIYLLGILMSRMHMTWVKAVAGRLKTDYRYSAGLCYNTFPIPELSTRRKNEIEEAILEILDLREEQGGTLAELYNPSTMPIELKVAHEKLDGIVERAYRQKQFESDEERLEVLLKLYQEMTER
# B1: unmethylated dsDNA (oTMN67/oTMN68) (dsDNA)
# DNA 1: CAAAACAGGATATGAAATAGTATTGGACGAGAGCTTTTTGGTGGCTTATACTATAG
# DNA 2: CTATAGTATAAGCCACCAAAAAGCTCTCGTCCAATACTATTTCATATCCTGTTTTG
# B2: RNA-DNA hybrid (oTMN67/oJRR271) (DNA:RNA)
# DNA: B1 DNA 1
# RNA: CUAUAGUAUAAGCCACCAAAAAGCUCUCGUCCAAUACUAUUUCAUAUCCUGUUUUG
# modifications: strand 2 is RNA
# B3: methylated dsDNA (oNLF001/oTMN68) (dsDNA)
# DNA 1: B1 DNA 1
# DNA 2: B1 DNA 2
# modifications: m6A in strand 1 (oNLF001), exact position not visible in printed string; presumably in GACGAG
# Molecular target: T1, DnmA (WT)
# Assay: EMSA; EMSA: 5x buffer 500 mM Tris-HCl pH 8, 1.25 M NaCl, 10% glycerol (1x: 100 mM Tris, 250 mM NaCl, 2% glycerol), 5 nM probe, 30 min at 25 C; 6% native PAGE in 1x TBE on ice
# Conditions: protein: recombinant; tags: His-SUMO tag (pE-SUMO) removed by SUMO protease; label: 5' IRDye700 on strand 1; 5' IRDye800 on strand 2; blunt
row,Binder,apparent K (half saturation) [nM]
1,B1,36.8 ± 14.2
2,B2,321 ± 16.5
3,B3,156 ± 76
